Here are results for one molecule from article PMC4872540, “Structural insight into antibody-mediated antagonism of the Glucagon-like peptide-1 Receptor” (Scientific Reports, 2016).

For this test, the target named is human GLP-1R (human, UniProt P43220). The test can be described thus: cell-based or functional assay.
human GLP-1R, sequence (P43220 24-463): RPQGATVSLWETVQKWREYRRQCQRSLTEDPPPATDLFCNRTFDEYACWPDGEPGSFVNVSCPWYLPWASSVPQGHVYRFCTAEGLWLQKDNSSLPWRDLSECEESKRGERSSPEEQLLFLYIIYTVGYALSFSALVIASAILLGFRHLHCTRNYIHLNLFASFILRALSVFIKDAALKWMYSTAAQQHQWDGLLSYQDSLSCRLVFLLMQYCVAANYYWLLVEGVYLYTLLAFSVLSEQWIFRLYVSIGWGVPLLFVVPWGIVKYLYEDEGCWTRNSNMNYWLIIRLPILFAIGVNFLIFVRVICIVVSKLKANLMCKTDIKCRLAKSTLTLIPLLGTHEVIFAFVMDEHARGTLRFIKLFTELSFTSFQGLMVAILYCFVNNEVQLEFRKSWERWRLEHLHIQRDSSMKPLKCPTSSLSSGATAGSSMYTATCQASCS

B1: mAb 3F52 (antibody, V domains shown)
VH: DVQLQESGPGLVKPSQSLSLTCTVTGYSITSTYDWHWIRHFPGNILEWMGYISYSGSTNYNPSLKSRISITHDTSKNRFFLKLNSVTSEDTATYYCARATASFYDGSYYFDYWGQGTTLTVSS
VL: DIQMTQTTSSLSASLGDRVTISCRASQDISNYLNWYQQKPDGTVKLLIYYTSRLHSGVPSRFSGSGSGTDYSLTISSLEQEDVATYFCQQGNTLPFTFGSGTKLEIK
As for B1, the “IC50 of inhibition of GLP-1-mediated cAMP accumulation (Flashplate assay, BHK cells over-expressing human GLP-1R); blocks GLP-1 with GLP-1R” value is ~0.01 µM.
